Measurements reported in patent US20190263934A1.

Columns and labels:
[1] = target: rFcRn (rat) (UniProt P13599); test: SPR Biacore, pH 6.0
Target sequence in this assay (P13599 23-298 limits assumed, form in doubt, chain 1 of 2): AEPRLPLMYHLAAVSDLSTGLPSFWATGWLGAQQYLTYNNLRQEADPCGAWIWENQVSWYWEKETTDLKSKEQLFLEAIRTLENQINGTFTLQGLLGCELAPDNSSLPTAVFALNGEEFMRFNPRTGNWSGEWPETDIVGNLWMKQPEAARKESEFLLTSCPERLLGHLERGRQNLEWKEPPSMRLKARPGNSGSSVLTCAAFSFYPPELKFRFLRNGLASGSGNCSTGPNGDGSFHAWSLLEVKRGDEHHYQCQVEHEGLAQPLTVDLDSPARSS
Target sequence in this assay (P07151 21-119 limits assumed, form in doubt, chain 2 of 2, further chain): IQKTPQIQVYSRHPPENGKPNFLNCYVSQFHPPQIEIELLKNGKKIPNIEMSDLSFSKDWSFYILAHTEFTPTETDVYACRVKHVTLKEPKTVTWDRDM

[2] = target: biotinylated hFcRn (human) (UniProt P55899); test: SPR Biacore, pH 6.0
[3] = target: rFcRn (rat) (UniProt P13599); test: SPR Biacore, pH 7.4
Target sequence in this assay (P13599 23-298 limits assumed, form in doubt, chain 1 of 2): as the sequence (P13599 23-298 limits assumed, form in doubt, chain 1 of 2) above
Target sequence in this assay (P07151 21-119 limits assumed, form in doubt, chain 2 of 2, further chain): as the sequence (P07151 21-119 limits assumed, form in doubt, chain 2 of 2, further chain) above

[4] = target: biotinylated hFcRn (human) (UniProt P55899); test: SPR Biacore, pH 7.4
[5] = target: rFcRn (rat) (UniProt P13599); test: SPR Biacore, pH 7.4, 1000 nM antibody
Target sequence in this assay (P13599 23-298 limits assumed, form in doubt, chain 1 of 2): as the sequence (P13599 23-298 limits assumed, form in doubt, chain 1 of 2) above
Target sequence in this assay (P07151 21-119 limits assumed, form in doubt, chain 2 of 2, further chain): as the sequence (P07151 21-119 limits assumed, form in doubt, chain 2 of 2, further chain) above

[6] = target: biotinylated hFcRn (human) (UniProt P55899); test: SPR Biacore, pH 6.0; remark: listed apart in the source
[7] = target: rFcRn (rat) (UniProt P13599); test: Biacore SPR, pH 6.0, bivalent fit
Target sequence in this assay (P13599 23-298, form in doubt, chain 1 of 2): as the sequence (P13599 23-298 limits assumed, form in doubt, chain 1 of 2) above
Target sequence in this assay (P07151 21-119, form in doubt, chain 2 of 2, further chain): as the sequence (P07151 21-119 limits assumed, form in doubt, chain 2 of 2, further chain) above

[8] = target: biotinylated hFcRn (human) (UniProt P55899); test: Biacore SPR, pH 6.0, bivalent fit
[9] = target: biotinylated human FcRn (hFcRn; p51 subunit residues 24-297 with C-terminal Avi-tag, β2-m residues 21-119) (human) (UniProt P55899); test: Biacore SPR; second ratio column (inverse of c7)
[10] = target: biotinylated human FcRn (hFcRn; p51 subunit residues 24-297 with C-terminal Avi-tag, β2-m residues 21-119) (human) (UniProt P55899); test: Biacore SPR, pH 7.4, steady state, 1000 nM antibody
[11] = target: biotinylated human FcRn (hFcRn; p51 subunit residues 24-297 with C-terminal Avi-tag, β2-m residues 21-119) (human) (UniProt P55899); test: Biacore SPR, pH 6.0, apparent affinity
[12] = target: biotinylated human FcRn (hFcRn; p51 subunit residues 24-297 with C-terminal Avi-tag, β2-m residues 21-119) (human) (UniProt P55899); test: Biacore SPR; pH 6.0 affinity (M^-1) over pH 7.4 steady state RU
[13] = target: biotinylated human FcRn (hFcRn; p51 subunit residues 24-297 with C-terminal Avi-tag, β2-m residues 21-119) (human) (UniProt P55899); test: Biacore SPR, Biotin CAPture, pH 7.4, 1000 nM antibody, steady state
[14] = target: biotinylated hFcRn (human) (UniProt P55899); test: SPR Biacore, pH 7.4, 1000 nM antibody

Kd [1] [nM] | Kd [2] [nM] | Steady State RU [3] [RU] | Steady State Binding, pH 7.4 (RU) [10] [RU] | Ka [11] [M⁻¹] | Ratio (pH 6.0/pH 7.4) [12] | Substance | also measured
0.26 | 8.32 | 67.9 |  |  |  | mAb1 M252Y/N434Y (antibody) | koff [1]: 0.00014 s⁻¹; kon [1]: 540000 M⁻¹ s⁻¹; koff [2]: 0.0171 s⁻¹; kon [2]: 2.06e+06 M⁻¹ s⁻¹; Steady State RU [4]: 54.1 RU
86 | 6700 | 23.2 |  |  |  | mAb1 T256D (antibody) | Steady State RU [5]: 30.4 RU; Kd [6]: > 3000 nM; Kd [7]: 86 nM; Kd [8]: 6700 nM
0.62 | 21.5 | 69.6 |  |  |  | mAb1 T307W/N434Y (antibody) | koff [1]: 0.0003 s⁻¹; kon [1]: 480000 M⁻¹ s⁻¹; koff [2]: 0.0317 s⁻¹; kon [2]: 1.48e+06 M⁻¹ s⁻¹; Steady State RU [4]: 37.2 RU
 |  |  | 18.3 | 3.68e+06 | 201000 | mAb1 LS variant (M428L/N434S) (antibody) | Ratio (pH 6.0/pH 7.4) [9]: 4.97e-06
 |  |  | 12.2 | 5.92e+06 | 485000 | mAb1 MDWN variant (T256D/T307W) (antibody) | Ratio (pH 6.0/pH 7.4) [9]: 2.06e-06
 |  |  | 62.6 | 6.54e+07 | 1.04e+06 | mAb1 YTWF variant (M252Y/T307W/N434F) (antibody) | Ratio (pH 7.4 steady-state RU / pH 6.0 affinity) [9]: 9.57e-07
 |  |  | 46.6 | 7.04e+07 | 1.51e+06 | mAb1 MEWY variant (T256E/T307W/N434Y) (antibody) | Ratio (pH 7.4/pH 6.0) [9]: 6.62e-07
10.6 | 323 | 33 |  |  |  | mAb1 T256E/T307W (antibody) | 
 |  |  | 10.6 | 3.6e+06 | 340000 | mAb1 YTQN variant (M252Y/T307Q) (antibody) | Ratio (pH 7.4 steady state RU / pH 6.0 affinity) [9]: 2.94e-06
 |  |  | 49.4 | 3.69e+07 | 747000 | mAb1 MDQY variant (T256D/T307Q/N434Y) (antibody) | Ratio (pH 7.4/pH 6.0) [9]: 1.34e-06
 |  |  | 43.8 | 5.56e+07 | 1.27e+06 | mAb1 YTTF variant (M252Y/N434F) (antibody) | Ratio (pH 7.4/pH 6.0) [9]: 7.88e-07
 |  |  | 15.9 | 8.47e+06 | 533000 | mAb1 YTWN variant (M252Y/T307W) (antibody) | Ratio (pH 7.4/pH 6.0) [9]: 1.88e-06
 |  |  | 34.2 | 2.33e+07 | 681000 | mAb1 MTQF variant (T307Q/N434F) (antibody) | Ratio (pH 6.0/pH 7.4) [9]: 1.47e-06
7.71 | 62.6 | 62.2 |  |  |  | mAb1 T256E/N434Y (antibody) | koff [1]: 0.00098 s⁻¹; kon [1]: 127000 M⁻¹ s⁻¹; koff [2]: 0.0393 s⁻¹; kon [2]: 628000 M⁻¹ s⁻¹; Steady State RU [4]: 26.8 RU
 |  |  | 65.4 | 9.01e+07 |  | mAb1 YDTY variant (M252Y/T256D/N434Y) (antibody) | pH 7.4 RU [13]: 69.7 RU
 |  |  | 41.9 | 5.62e+07 | 1.34e+06 | mAb1 MEWF variant (T256E/T307W/N434F) (antibody) | Ratio (pH 7.4/pH 6.0) [9]: 7.46e-07
1.78 | 29.9 | 63 |  |  |  | mAb1 T256D/N434F (antibody) | koff [1]: 0.00039 s⁻¹; kon [1]: 218000 M⁻¹ s⁻¹; koff [2]: 0.029 s⁻¹; kon [2]: 968000 M⁻¹ s⁻¹; Steady State RU [4]: 29.2 RU
190 |  |  |  |  |  | mAb1 K288N (antibody) | Steady State RU [5]: 20.4 RU; Kd [7]: 190 nM
 |  |  | 25.9 | 1.01e+07 | 390000 | mAb1 YDWN variant (M252Y/T256D/T307W) (antibody) | Ratio (pH 7.4/pH 6.0) [9]: 2.56e-06
58 | 5720 | 31.3 |  |  |  | mAb1 T307Q (antibody) | Steady State RU [4]: 6.6 RU; Steady State RU [5]: 24.3 RU; Steady State RU [14]: 6.4 RU; Kd [6]: > 3000 nM; Kd [7]: 58 nM; Kd [8]: 5720 nM
233 |  |  |  |  |  | mAb1 Y436N (antibody) | Steady State RU [5]: 17.4 RU; Steady State RU [14]: 3.6 RU; Kd [7]: 233 nM
132 |  |  |  |  |  | mAb1 T307A (antibody) | Steady State RU [5]: 23.1 RU; Steady State RU [14]: 5.2 RU; Kd [7]: 132 nM
 |  |  | 37.1 | 6.41e+07 | 1.73e+06 | mAb1 MDTY variant (T256D/N434Y) (antibody) | Ratio (pH 6.0/pH 7.4) [9]: 5.79e-07
